Assay results published in PMC12153337, “A temperature-driven DNA discrimination strategy to distinguish E. coli DNA and phage 5hmC-modified DNA” (Nucleic Acids Research, 2025).

Legend:
[1] = target: the molecule itself; assay: SEC; Superdex 200 HiLoad 26/600, PBS buffer, room temperature 22°C; size estimated from the elution volume
[2] = target: the molecule itself; assay: native gel or EMSA; native gel electrophoresis of purified DexA after SEC, room temperature
[3] = target: the molecule itself; assay: cryo-EM structure; single-particle cryo-EM, 2D classification of conformers; 5 μM, incubated at 37°C for 1 h
[4] = target: the molecule itself; assay: SEC-MALS; Superdex 75 10/300 GL, 0.5 ml/min, 25°C

B1: bacteriophage T4 exonuclease DexA (enzyme, UniProt P04536 1-227, looked up)
chain: MFDFIIDFETMGSGEKAAVIDLAVIAFDPNPEVVETFDELVSRGIKIKFDLKSQKGHRLFTKSTIEWWKNQSPEARKNIAPSDEDVSTIDGIAKFNDYINAHNIDPWKSQGWCRGMSFDFPILVDLIRDIQRLNGVSENELDTFKLEPCKFWNQRDIRTRIEALLLVRDMTTCPLPKGTLDGFVAHDSIHDCAKDILMMKYALRYAMGLEDAPSEEECDPLSLPTKR
notes: DexA (dexA gene product), 3'-5' exonuclease of bacteriophage T4, amplified from the T4 genome; 26.0 kDa per monomer; Exists in a dimer-tetramer equilibrium that depends on temperature, so copies is left empty; also called ExoD; wild-type DexA; source: E. coli BL21(DE3), pET46, purified (Ni-NTA, SEC)
- stoichiometry N [1]: ≥ 2
- stoichiometry N [2]: 4
- stoichiometry N [3]: 2

B2: DexA^D181A/S72A (enzyme, bacteriophage T4, UniProt P04536 1-227, looked up)
chain: MFDFIIDFETMGSGEKAAVIDLAVIAFDPNPEVVETFDELVSRGIKIKFDLKSQKGHRLFTKSTIEWWKNQAPEARKNIAPSDEDVSTIDGIAKFNDYINAHNIDPWKSQGWCRGMSFDFPILVDLIRDIQRLNGVSENELDTFKLEPCKFWNQRDIRTRIEALLLVRDMTTCPLPKGTLAGFVAHDSIHDCAKDILMMKYALRYAMGLEDAPSEEECDPLSLPTKR
notes: DexA of bacteriophage T4 with D181A and S72A, made by site-directed mutagenesis of the dexA plasmid; Full length is said of the native protein only; the mutant was made from the same plasmid; also called contact 1 mutant; source: E. coli BL21(DE3), pET46, purified (Ni-NTA, SEC)
- binding result [4]: binds

B3: DexA^S87A/D90A (enzyme, bacteriophage T4, UniProt P04536 1-227, looked up)
chain: MFDFIIDFETMGSGEKAAVIDLAVIAFDPNPEVVETFDELVSRGIKIKFDLKSQKGHRLFTKSTIEWWKNQSPEARKNIAPSDEDVATIAGIAKFNDYINAHNIDPWKSQGWCRGMSFDFPILVDLIRDIQRLNGVSENELDTFKLEPCKFWNQRDIRTRIEALLLVRDMTTCPLPKGTLDGFVAHDSIHDCAKDILMMKYALRYAMGLEDAPSEEECDPLSLPTKR
notes: DexA of bacteriophage T4 with S87A and D90A, made by site-directed mutagenesis of the dexA plasmid; Full length is said of the native protein only; the mutant was made from the same plasmid; also called dimeric mutant; contact 2 mutant; source: E. coli BL21(DE3), pET46, purified (Ni-NTA, SEC)
- stoichiometry N [4]: 2
